In the supplement of paper PMC10065799, “High-throughput profiling of sequence recognition by tyrosine kinases and SH2 domains using bacterial peptide display” (eLife, 2023):

Legend:
c-Src SH2 = test: SH2 binding enrichment of the phosphorylated peptide, bacterial display (enrichment ratio); higher = better substrate or ligand; peptides without Tyr show the background
Grb2 SH2 = Grb2 SH2 (UniProt P62993); test: as above
SHP2-C SH2 = test: as above
c-Src = test: phosphorylation enrichment, bacterial display (enrichment ratio); higher = better substrate or ligand; peptides without Tyr show the background
Fyn = Fyn (UniProt P06241); test: as above
Fyn, sequence (P06241 whole entry, looked up): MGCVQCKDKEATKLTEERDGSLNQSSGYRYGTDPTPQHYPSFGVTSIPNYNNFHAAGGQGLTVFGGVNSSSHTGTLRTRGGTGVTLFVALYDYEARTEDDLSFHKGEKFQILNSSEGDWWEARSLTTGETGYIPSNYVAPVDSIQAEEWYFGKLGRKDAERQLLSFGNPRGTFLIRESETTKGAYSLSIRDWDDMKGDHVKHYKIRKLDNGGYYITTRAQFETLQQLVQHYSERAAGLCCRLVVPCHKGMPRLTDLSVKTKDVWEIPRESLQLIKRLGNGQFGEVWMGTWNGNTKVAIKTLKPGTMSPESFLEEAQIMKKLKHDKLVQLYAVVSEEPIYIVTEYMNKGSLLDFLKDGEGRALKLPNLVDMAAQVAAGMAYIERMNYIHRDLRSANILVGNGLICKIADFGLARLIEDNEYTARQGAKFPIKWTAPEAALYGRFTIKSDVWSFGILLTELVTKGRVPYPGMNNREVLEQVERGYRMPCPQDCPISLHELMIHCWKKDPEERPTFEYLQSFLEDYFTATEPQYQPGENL

c-Abl (mouse) = test: as above
EPHB1 = EPHB1 (UniProt P54762); test: as above
MERTK = MERTK (UniProt Q12866); test: as above
MERTK, sequence (Q12866 whole entry, looked up): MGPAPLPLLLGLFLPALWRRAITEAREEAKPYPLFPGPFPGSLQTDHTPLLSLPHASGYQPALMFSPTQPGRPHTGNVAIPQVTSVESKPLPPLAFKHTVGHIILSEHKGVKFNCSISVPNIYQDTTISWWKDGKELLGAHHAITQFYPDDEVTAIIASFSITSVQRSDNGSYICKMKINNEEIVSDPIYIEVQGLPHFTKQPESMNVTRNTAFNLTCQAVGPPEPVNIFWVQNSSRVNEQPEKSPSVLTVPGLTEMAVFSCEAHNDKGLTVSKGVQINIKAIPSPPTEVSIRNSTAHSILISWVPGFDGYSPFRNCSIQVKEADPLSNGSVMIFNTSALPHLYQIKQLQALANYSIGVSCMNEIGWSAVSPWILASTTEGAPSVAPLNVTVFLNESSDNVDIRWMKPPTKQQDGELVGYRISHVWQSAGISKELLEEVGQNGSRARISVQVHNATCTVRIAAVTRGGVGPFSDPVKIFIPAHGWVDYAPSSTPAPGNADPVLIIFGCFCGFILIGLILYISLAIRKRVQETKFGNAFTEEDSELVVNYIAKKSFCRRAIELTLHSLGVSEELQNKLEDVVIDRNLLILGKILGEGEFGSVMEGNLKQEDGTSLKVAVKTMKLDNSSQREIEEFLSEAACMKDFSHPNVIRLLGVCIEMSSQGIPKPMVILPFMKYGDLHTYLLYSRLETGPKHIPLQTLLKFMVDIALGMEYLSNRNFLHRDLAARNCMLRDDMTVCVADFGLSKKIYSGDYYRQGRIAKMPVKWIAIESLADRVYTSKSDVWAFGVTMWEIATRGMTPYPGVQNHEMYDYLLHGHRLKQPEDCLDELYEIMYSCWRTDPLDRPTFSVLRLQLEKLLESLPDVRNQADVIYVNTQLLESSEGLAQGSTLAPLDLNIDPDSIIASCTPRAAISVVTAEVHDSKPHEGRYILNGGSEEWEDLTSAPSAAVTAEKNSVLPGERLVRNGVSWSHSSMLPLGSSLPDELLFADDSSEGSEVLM

AncSZ = test: as above
FGFR1 = FGFR1 (UniProt P11362); test: as above
FGFR1, sequence (P11362 whole entry, looked up): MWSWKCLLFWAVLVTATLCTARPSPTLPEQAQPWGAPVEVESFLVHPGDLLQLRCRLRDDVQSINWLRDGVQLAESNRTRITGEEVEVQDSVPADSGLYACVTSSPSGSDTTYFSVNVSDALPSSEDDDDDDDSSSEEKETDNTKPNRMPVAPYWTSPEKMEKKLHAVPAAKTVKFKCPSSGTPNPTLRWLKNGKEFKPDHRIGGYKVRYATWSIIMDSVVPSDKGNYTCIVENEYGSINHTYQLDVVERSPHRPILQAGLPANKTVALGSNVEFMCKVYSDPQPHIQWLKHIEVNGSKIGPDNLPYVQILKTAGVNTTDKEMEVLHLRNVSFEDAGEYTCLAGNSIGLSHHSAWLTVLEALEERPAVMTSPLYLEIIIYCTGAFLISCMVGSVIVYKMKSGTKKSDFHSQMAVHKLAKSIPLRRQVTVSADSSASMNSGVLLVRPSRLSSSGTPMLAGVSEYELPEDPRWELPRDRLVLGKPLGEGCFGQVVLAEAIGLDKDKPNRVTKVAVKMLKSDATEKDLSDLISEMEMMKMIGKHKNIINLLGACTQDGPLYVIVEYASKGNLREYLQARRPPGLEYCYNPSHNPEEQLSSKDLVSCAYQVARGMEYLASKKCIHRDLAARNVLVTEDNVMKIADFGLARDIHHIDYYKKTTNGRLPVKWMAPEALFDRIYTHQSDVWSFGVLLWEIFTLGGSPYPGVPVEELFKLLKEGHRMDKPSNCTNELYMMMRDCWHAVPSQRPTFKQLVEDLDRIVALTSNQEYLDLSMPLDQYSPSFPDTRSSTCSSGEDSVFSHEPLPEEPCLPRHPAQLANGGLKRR

FGFR3 = FGFR3 (UniProt P22607); test: as above
Fes = Fes (UniProt P07332); test: as above
Fes, sequence (P07332 whole entry, looked up): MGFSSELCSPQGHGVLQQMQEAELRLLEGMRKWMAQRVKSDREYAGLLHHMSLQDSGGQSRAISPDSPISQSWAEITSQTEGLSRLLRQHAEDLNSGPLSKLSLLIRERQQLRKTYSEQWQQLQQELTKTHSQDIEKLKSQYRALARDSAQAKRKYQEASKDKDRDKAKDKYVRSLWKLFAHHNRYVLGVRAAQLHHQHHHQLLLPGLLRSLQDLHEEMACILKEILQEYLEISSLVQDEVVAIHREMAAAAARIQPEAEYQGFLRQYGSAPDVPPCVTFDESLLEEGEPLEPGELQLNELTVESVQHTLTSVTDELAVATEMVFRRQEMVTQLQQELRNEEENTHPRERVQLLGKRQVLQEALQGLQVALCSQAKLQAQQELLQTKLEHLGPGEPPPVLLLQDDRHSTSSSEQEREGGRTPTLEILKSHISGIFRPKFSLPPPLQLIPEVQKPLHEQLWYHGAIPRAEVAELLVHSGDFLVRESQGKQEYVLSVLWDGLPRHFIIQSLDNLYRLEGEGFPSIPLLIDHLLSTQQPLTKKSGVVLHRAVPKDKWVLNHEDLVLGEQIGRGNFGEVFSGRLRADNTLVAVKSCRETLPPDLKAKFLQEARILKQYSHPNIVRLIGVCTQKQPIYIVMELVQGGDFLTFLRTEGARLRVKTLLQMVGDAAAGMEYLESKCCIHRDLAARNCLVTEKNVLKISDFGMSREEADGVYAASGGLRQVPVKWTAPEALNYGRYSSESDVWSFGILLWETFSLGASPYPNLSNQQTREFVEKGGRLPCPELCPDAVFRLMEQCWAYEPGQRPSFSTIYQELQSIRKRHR

Fer (mouse) = test: as above
EPHB2 = EPHB2 (UniProt P29323); test: as above
Hck = Hck (UniProt P08631); test: as above
Hck, sequence (P08631 whole entry, looked up): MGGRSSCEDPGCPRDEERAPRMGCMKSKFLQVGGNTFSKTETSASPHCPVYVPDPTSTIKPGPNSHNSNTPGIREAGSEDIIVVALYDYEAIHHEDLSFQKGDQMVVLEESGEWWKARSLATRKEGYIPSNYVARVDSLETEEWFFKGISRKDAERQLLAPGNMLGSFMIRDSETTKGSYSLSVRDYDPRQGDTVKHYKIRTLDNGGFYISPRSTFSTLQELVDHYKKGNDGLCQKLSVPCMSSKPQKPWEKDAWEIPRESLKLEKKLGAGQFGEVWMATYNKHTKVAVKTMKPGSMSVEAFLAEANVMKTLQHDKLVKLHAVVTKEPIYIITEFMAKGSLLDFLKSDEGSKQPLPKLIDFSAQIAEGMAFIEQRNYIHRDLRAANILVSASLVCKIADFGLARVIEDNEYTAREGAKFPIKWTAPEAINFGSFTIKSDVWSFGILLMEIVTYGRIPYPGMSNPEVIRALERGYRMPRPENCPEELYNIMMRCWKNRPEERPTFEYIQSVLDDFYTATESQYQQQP

Jak2 = Jak2 (UniProt O60674); test: as above
Jak2, sequence (O60674 whole entry, looked up, the tested form may be a part): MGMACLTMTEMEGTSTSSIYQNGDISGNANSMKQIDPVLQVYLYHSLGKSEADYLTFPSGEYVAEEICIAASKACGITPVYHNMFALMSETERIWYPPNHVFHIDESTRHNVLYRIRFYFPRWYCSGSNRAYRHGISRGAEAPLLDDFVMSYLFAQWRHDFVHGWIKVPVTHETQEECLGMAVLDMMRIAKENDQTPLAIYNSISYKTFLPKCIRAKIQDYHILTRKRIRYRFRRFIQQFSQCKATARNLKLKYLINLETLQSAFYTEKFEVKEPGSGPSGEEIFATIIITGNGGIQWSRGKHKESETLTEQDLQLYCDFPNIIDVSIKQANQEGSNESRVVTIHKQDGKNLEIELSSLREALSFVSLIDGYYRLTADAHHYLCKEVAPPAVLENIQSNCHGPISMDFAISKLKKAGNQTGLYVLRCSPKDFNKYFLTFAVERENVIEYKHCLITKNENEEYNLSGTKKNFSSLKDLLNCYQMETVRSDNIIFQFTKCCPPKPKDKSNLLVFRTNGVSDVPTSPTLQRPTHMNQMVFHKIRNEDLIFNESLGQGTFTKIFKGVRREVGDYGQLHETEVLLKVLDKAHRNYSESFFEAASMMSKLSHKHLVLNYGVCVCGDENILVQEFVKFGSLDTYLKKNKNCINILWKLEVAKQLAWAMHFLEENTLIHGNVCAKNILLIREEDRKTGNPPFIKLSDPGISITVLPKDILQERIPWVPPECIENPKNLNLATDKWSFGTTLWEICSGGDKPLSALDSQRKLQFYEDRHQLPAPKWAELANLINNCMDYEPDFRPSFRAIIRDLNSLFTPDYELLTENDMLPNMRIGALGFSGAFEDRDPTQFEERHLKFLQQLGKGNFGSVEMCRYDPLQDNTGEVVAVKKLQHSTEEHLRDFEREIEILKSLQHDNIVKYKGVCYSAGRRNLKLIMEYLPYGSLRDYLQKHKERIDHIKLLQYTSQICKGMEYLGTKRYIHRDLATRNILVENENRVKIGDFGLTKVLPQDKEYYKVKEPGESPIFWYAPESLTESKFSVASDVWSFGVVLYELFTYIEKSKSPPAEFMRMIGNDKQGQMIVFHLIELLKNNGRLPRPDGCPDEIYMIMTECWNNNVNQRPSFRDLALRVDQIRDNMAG
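For SH2 binding enrichment of the phosphorylated peptide, bacterial display in this document: peptide library displayed on the E. coli surface as eCPX fusions, selected cells deep-sequenced, score is each peptide's frequency after selection divided by its frequency in the input.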
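For phosphorylation enrichment, bacterial display in this document: 11-residue human phosphosite peptides and single-mutation variants displayed on the E. coli surface, counted by deep sequencing, each peptide's frequency after selection divided by its frequency in the unselected input library; frequency after pTyr selection over input frequency; kinase dosed for 20-30% of maximal phosphorylation in three min.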

Grb2 SH2, sequence (P62993 whole entry, looked up): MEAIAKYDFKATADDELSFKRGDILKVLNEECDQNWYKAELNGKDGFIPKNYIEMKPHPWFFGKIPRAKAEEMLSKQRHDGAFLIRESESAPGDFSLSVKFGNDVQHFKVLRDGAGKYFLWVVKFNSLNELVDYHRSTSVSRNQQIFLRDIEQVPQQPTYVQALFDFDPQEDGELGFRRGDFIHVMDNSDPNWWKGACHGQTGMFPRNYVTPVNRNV

| Sequence | SH2 binding enrichment (c-Src SH2) | SH2 binding enrichment (Grb2 SH2) | SH2 binding enrichment (SHP2-C SH2) | phosphorylation enrichment (c-Src) | phosphorylation enrichment (Fyn) | phosphorylation enrichment (c-Abl (mouse)) | phosphorylation enrichment (EPHB1) | phosphorylation enrichment (MERTK) | phosphorylation enrichment (AncSZ) | phosphorylation enrichment (FGFR1) | phosphorylation enrichment (FGFR3) | phosphorylation enrichment (Fes) | phosphorylation enrichment (Fer (mouse)) | phosphorylation enrichment (EPHB2) | phosphorylation enrichment (Hck) | phosphorylation enrichment (Jak2) |
| --- | --- | --- | --- | --- | --- | --- | --- | --- | --- | --- | --- | --- | --- | --- | --- | --- |
| FTRNYYVQAVL [CYBA_Y88_R90Q] | 0.591 | 0.839 | 0.834 | 0.538 | 0.486 | 0.813 | 0.66 | 0.887 | 1.01 | 1.59 | 2.67 | 0.981 | 0.512 | 0.558 | 0.521 | 1.06 |
| GANFEYIIAEK [ECHS1_Y35] | 0.447 | 0.576 | 0.547 | 0.48 | 0.479 | 0.544 | 0.501 | 0.513 | 0.911 | 0.523 | 0.594 | 0.862 | 0.406 | 0.455 | 0.553 | 0.883 |
| GDAMLYFPSVS [GPR143_Y177_A173D_YF] | 0.528 | 0.744 | 0.632 | 0.746 | 0.55 | 0.674 | 0.511 | 0.726 | 0.721 | 0.801 | 0.98 | 0.823 | 0.521 | 0.446 | 0.692 | 1.92 |
| GDFFRSLAEVA [YWHAG_Y133_Y133S_YF] | 0.4 | 0.913 | 0.696 | 0.425 | 0.464 | 0.721 | 0.423 | 0.357 | 0.871 | 0.486 | 0.595 | 0.865 | 0.438 | 0.503 | 0.405 | 0.72 |
| GDLTDYLMKIL [ACTA1_Y190_R185G] | 0.711 | 1.44 | 1.19 | 0.323 | 0.397 | 0.56 | 0.508 | 0.355 | 0.788 | 0.437 | 0.509 | 0.821 | 0.42 | 0.476 | 0.453 | 0.648 |
| GEAEQYVGGGG [FAT4_Y4980] | 0.464 | 1.16 | 0.584 | 0.327 | 0.465 | 0.584 | 0.394 | 0.371 | 0.842 | 0.543 | 0.687 | 0.87 | 0.448 | 0.414 | 0.44 | 0.746 |
| GEDLSYGDLPP [IRS1_Y151_V154L] | 0.622 | 0.868 | 0.788 | 0.582 | 0.571 | 0.899 | 0.661 | 0.543 | 1.3 | 0.597 | 0.786 | 1.34 | 0.794 | 0.664 | 0.564 | 1.22 |
| GEHSIYCTVNN [CD55_Y266] | 0.48 | 0.598 | 0.639 | 4.66 | 5.28 | 1.98 | 6.56 | 2.08 | 1.55 | 0.955 | 1.07 | 1.73 | 5.03 | 5.39 | 5.61 | 1.22 |
| GETEQYVGGGG [FAT4_Y4980_A4977T] | 0.506 | 0.798 | 0.553 | 0.419 | 0.475 | 0.624 | 0.526 | 0.414 | 0.889 | 0.437 | 0.599 | 0.922 | 0.436 | 0.475 | 0.467 | 0.66 |
| GFAGKYIAMVM [CYP19A1_Y441_C437Y_YF] | 0.755 | 0.821 | 0.81 | 0.599 | 0.453 | 0.473 | 0.41 | 0.525 | 0.694 | 0.454 | 0.49 | 0.858 | 0.539 | 0.823 | 0.556 | 0.594 |
| GFKVRYATGSI [FGFR1_Y210_W213G_YF] | 0.706 | 1.28 | 1 | 0.343 | 0.417 | 0.541 | 0.473 | 0.455 | 0.628 | 0.516 | 0.471 | 0.689 | 0.362 | 0.404 | 0.44 | 0.651 |
| GGEEFYVHFVG [KAT8_Y90_R86G_YF] | 0.308 | 0.626 | 0.538 | 0.501 | 0.58 | 0.967 | 0.747 | 0.433 | 1.34 | 0.648 | 0.96 | 1.39 | 0.592 | 0.605 | 0.612 | 1.24 |
| GGFSRYDEGSG [RECQL5_Y484_D480G] | 0.459 | 0.858 | 0.62 | 0.416 | 0.432 | 0.636 | 0.431 | 0.435 | 0.733 | 0.473 | 0.659 | 0.928 | 0.483 | 0.558 | 0.468 | 0.729 |
| GGGCGYNRSSG [FUS_Y232_G230C] | 0.531 | 0.802 | 0.632 | 0.435 | 0.422 | 0.815 | 0.392 | 0.412 | 0.663 | 0.448 | 0.465 | 0.717 | 0.434 | 0.426 | 0.42 | 0.701 |
| GGGGSYNNFGN [HNRNPA1_Y312_D314N] | 0.43 | 0.805 | 0.587 | 0.325 | 0.388 | 0.335 | 0.379 | 0.308 | 0.545 | 0.362 | 0.403 | 0.564 | 0.378 | 0.416 | 0.435 | 0.463 |
| GGMTEYNLVVV [KRAS_Y4_K5N] | 0.352 | 0.669 | 0.488 | 0.478 | 0.486 | 0.758 | 0.642 | 0.398 | 1.21 | 1.08 | 1.05 | 1.1 | 1.17 | 0.552 | 0.609 | 0.981 |
